The text below walks through data of patent US20060172941A1 (published 2006).

The test addresses VEGF receptor on endothelial cells. In words: inhibition of radiolabeled VEGF binding to its receptor on endothelial cells; peptide concentration varied.

Sequence of VEGF receptor on endothelial cells (chain, as listed by the source): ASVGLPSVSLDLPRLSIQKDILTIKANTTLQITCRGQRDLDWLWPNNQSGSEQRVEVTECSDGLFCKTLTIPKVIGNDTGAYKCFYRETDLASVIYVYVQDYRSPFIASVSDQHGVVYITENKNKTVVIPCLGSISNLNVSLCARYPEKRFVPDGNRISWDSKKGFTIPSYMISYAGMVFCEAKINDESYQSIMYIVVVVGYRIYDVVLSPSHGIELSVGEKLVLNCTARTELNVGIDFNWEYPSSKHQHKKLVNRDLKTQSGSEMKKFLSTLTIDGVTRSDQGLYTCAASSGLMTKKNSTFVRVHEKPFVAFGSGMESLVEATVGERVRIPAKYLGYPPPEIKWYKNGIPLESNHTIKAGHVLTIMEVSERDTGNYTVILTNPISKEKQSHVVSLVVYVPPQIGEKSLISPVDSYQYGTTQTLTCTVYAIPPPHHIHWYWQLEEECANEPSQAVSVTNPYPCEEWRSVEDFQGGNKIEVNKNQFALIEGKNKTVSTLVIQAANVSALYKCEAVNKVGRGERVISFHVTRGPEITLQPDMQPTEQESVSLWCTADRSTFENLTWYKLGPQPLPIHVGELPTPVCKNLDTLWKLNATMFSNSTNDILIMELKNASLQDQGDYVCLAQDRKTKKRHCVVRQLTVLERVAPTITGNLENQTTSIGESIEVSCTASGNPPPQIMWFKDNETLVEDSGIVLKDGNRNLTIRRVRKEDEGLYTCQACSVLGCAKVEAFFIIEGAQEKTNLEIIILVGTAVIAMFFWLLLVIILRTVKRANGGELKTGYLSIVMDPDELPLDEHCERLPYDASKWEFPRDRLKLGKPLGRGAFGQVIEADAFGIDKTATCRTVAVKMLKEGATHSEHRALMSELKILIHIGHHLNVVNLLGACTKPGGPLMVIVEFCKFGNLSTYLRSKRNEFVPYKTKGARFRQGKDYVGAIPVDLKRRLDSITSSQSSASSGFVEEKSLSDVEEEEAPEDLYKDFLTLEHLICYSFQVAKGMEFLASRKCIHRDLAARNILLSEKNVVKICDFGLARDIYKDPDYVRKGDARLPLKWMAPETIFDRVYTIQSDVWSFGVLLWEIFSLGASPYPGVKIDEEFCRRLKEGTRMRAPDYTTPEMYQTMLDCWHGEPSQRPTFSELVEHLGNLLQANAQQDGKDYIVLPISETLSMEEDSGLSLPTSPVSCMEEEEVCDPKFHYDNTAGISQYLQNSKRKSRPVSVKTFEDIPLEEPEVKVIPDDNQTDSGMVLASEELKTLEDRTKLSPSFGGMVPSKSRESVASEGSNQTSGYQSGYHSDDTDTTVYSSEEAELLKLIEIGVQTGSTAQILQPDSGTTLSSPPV

As to YDGRGDSVVYGLKKKAARGRRAARGRR [ST100,032], the IC50 worked out at 430 nM. In other words, the sub-micromolar range.

With PYAGRGDSVVYGLGGGPGAARGRRAARGRR [ST100,033], the IC50 turned out to be 1100 nM. Compared with the last molecule, the IC50 is about 2.6-fold higher.
